System: TIL 1940 (A2 restricted MART-1 epitope 27-35)
Assay: Recognition assay for peptide presentation by DC (IFN-γ release ELISA), TIL 1940
Assay type: cell-based, human
Experimental: Dendritic cells were isolated from cytopheresis MNCs of melanoma patients with the HLA haplotypes HIA-A*0201 and HLA-DRβ1*0401. DC were generated from plastic adherent PBMCs cultured in RPMI with 10% human AB-serum, L-glutamine, penicillin-streptomycin, supplemented with GM-CSF 1000 IU/ml and IL-4 1000 IU/ml. By day 6, immature DC were harvested for electroporation.
2.5-3×10^6 DC were re-suspended in 100 μl nucleofector solution and added to 5 μg of DNA plasmid in 2-mm electrode gap cuvettes. Transfected DC were immediately plated with CM containing GM/IL4 or let mature using TNFα 100 ng/ml and PGE2 1000 ng/ml. GFP-transfected DCs were collected 16-24 hours later for FACS analysis.
DC were pulsed with 1 μg/ml of the relevant peptides at 1×10^6 cells/ml. Stimulants were added after 1 hour incubation without washing the peptide.
TIL 1940 which recognizes the A2 restricted MART-1 epitope 27-35.
T cell clones were co-incubated with DC in flat 96-well plate for 24 hours. DC were plated immediately after their transfection or pulsing in 6 separated plates, in the presence of GM CSF and IL-4. 1×10^5 T cells were added to 1×10^5 pulsed or transfected DC. In the longitudinal study, T cell clones were added to the transfected/pulsed DC at the following time points: T0=immediately, +12=after 12 hours, 24, 36, 48 and 72 hours. Supernatants were collected after overnight incubation. Interferon gamma release assay was performed to evaluate T cell stimulation using the ELISA method, results are presented in pg/ml.
Lactacystin was added to DC at concentrations of 25 μM and 50 μM, 4 hours post transfection. DC were incubated with lactacystin for 70 minutes and then washed twice.
Responding T cells were added after washing the lactacystin and co-incubated. Supernatents were collected after 20 hours.
For recognition assay of DC epitope presentation, 1×10^5 cells from different T cell clones, that were grown from PBMCs of patients, and were restricted to particular melanoma antigen peptides, were co-incubated with 1×10^5 pulsed or transfected DC, in the presence of GM-CSF and IL-4. T cell clones were added to the transfected/pulsed DC at the following time points: T=0 immediately, T=12, 24, 36, 48, 72 hours. Supernatant was collected after overnight incubation and was subjected to interferon gamma release assay, in order to evaluate the specific T cell activity towards the particular peptide presented by the DC cells.
The results shown in the following tables represent the amount of Interferon-γ (pg/ml) secreted to the culture medium as an index for T cell stimulation.

B1: MEP-mel: melanoma multiepitope polypeptide, SEQ ID NO: 2 or 57; in Tables 2-9 delivered by transfecting DC with pcDNA3-MEP-Mel plasmid (protein)
chain: PGTMGSCRKSYYLEPGPVTVRKSYLIMDQVPFSVRKSYLYMDGTMSQVRKSYLAGIGILTVRKSYYLEPGPVTVALLIMDQVPFSVALLYMDGTMSQVALLLAGIGILTVSSLYLEPGPVTVAAYIMDQVPFSVSSLYMDGTMSQVAAYLAGIGILTV
- Interferon-γ secreted to the culture medium (transfected DC from donor 1, T = 0 hours, TIL 1940): >2000 pg/mL
- Interferon-γ secreted to the culture medium (transfected DC from donor 2, T = 0 hours, TIL 1940): >2000 pg/mL
- Interferon-γ secreted to the culture medium (transfected DC, Lactacystin 0, TIL1941): 432 pg/mL
- Interferon-γ secreted to the culture medium (transfected DC, Lactacystin 25 μM, TIL1941): 62 pg/mL
- Interferon-γ secreted to the culture medium (transfected DC, Lactacystin 50 μM, TIL1941): 45 pg/mL
- Interferon-γ secreted to the culture medium (transfected or peptide-pulsed DC, Donor 1, T = 12 hours, TIL 1940): >2000 pg/mL
- Interferon-γ secreted to the culture medium (transfected or peptide-pulsed DC, Donor 1, T = 24 hours, TIL 1940): >2000 pg/mL
- Interferon-γ secreted to the culture medium (transfected or peptide-pulsed DC, Donor 1, T = 36 hours, TIL 1940): >2000 pg/mL
- Interferon-γ secreted to the culture medium (transfected or peptide-pulsed DC, Donor 1, T = 48 hours, TIL 1940): >2000 pg/mL
- Interferon-γ secreted to the culture medium (transfected or peptide-pulsed DC, Donor 1, T = 72 hours, TIL 1940): >2000 pg/mL
- Interferon-γ secreted to the culture medium (transfected or peptide-pulsed DC, Donor 2, T = 12 hours, TIL 1940): >2000 pg/mL
- Interferon-γ secreted to the culture medium (transfected or peptide-pulsed DC, Donor 2, T = 24 hours, TIL 1940): >2000 pg/mL
- Interferon-γ secreted to the culture medium (transfected or peptide-pulsed DC, Donor 2, T = 36 hours, TIL 1940): >2000 pg/mL
- Interferon-γ secreted to the culture medium (transfected or peptide-pulsed DC, Donor 2, T = 48 hours, TIL 1940): >2000 pg/mL
- Interferon-γ secreted to the culture medium (transfected or peptide-pulsed DC, Donor 2, T = 72 hours, TIL 1940): >2000 pg/mL
